Earlier results in article PMC4610412.
pKd: −log10 of the molar value.

Biological target: pCdc25C (Homo sapiens) (UniProt P30307)
Assay: ITC

Sequence of pCdc25C (Homo sapiens) (P30307 2-473): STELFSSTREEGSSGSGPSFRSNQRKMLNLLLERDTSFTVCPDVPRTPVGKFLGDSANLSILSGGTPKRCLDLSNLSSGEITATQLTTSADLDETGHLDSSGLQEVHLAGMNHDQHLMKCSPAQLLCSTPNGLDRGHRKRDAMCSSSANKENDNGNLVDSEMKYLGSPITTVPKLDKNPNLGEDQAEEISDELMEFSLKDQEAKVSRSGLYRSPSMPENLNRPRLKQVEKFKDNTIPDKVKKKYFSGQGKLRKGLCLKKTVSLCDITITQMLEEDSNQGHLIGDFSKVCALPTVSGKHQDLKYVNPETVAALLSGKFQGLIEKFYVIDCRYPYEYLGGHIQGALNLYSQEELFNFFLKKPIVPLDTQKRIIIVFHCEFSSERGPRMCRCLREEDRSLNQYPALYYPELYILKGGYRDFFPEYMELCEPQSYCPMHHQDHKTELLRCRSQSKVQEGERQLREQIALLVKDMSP
Sequence of Pin1 PPIase (Q13526 52-163): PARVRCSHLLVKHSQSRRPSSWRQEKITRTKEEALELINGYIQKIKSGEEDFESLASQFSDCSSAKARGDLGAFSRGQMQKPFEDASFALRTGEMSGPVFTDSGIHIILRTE
Sequence of Pin1 WW (Q13526 2-42): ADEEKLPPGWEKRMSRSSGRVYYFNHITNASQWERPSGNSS

Row | pKd | Substance
1 | 3.00 | Pin1 PPIase (from UniProt Q13526)
2 | 4.89 | Pin1 WW (from UniProt Q13526)
